The source of these data is the Immune Epitope Database (IEDB).

The target in one assay is HLA-B*46:01. Put plainly: IEDB peptide-MHC binding, purified MHC/competitive/fluorescence; filed as Kd, often an IC50 or EC50 that approximates it; ≥ and ≤ were set here for values at or beyond the usual limits of such assays.
Assay [1] has as its target HLA-B*15:01. The assay is described as above.
In assay [2] the target is HLA-B*51:01. The description is as above.
In a further assay the target is HLA-A*24:03. The description is as above.
In the next assay the target is HLA-A*02:19. The assay is described as above.
In the next assay the target is HLA-B*15:17. The assay is described as above.
The target in another assay is HLA-A*02:11. The assay is described as above.
Another assay has as its target HLA-A*29:02. Described as above.
The next assay deals with HLA-A*23:01. Described as above.
The target of a further assay is HLA-B*27:03. The description is as above.
For the next assay, the target named is HLA-B*18:01. The description is as above.
For another assay, the target named is HLA-A*02:01. The description is as above.
Another assay concerns the target HLA-A*02:12. The assay is described as above.
The target of another assay is HLA-B*39:01. Described as above.
For another assay, the target named is HLA-A*02:03. Described as above.
The target in the next assay is HLA-A*03:01. Described as above.
For a further assay, the target named is HLA-A*26:01. The description is as above.
Another assay has as its target HLA-B*57:01. The assay is described as above.
The target in the next assay is HLA-B*07:02. The assay can be described thus: IEDB peptide-MHC binding, purified MHC/direct/fluorescence; filed as Kd, often an IC50 or EC50 that approximates it; ≥ and ≤ were set here for values at or beyond the usual limits of such assays. The settings on record: source organism: Rickettsia conorii.
Assay [3] concerns the target HLA-B*15:01. Described as above. Conditions: source organism: Rickettsia sibirica 246.
In assay [4] the target is HLA-B*51:01. The assay is described as above. The settings on record: source organism: Rickettsia conorii.
The target in another assay is HLA-C*04:01. The description is as above. Conditions: source organism: Rickettsia sibirica 246.
Another assay addresses HLA-C*05:01. Described as above.
The target of the next assay is HLA-A*02:16. Put plainly: IEDB peptide-MHC binding, purified MHC/competitive/fluorescence; filed as Kd, often an IC50 or EC50 that approximates it; ≥ and ≤ were set here for values at or beyond the usual limits of such assays. Conditions: source organism: Shigella dysenteriae Sd197.
The next assay concerns the target HLA-B*15:02. Described as above.
In the next assay the target is HLA-C*12:03. The assay can be described thus: IEDB peptide-MHC binding, purified MHC/direct/fluorescence; filed as Kd, often an IC50 or EC50 that approximates it; ≥ and ≤ were set here for values at or beyond the usual limits of such assays.
Another assay deals with HLA-C*06:02. The assay can be described thus: IEDB peptide-MHC binding, purified MHC/competitive/fluorescence; filed as Kd, often an IC50 or EC50 that approximates it; ≥ and ≤ were set here for values at or beyond the usual limits of such assays.
For the next assay, the target named is HLA-B*83:01. The assay is described as above.
For another assay, the target named is HLA-A*32:15. The assay is described as above.
A further assay has as its target HLA-B*58:01. Described as above. Conditions: source organism: Yersinia pestis Nepal516.
In a further assay the target is HLA-A*24:02. The assay is described as above. Conditions: source organism: Yersinia pestis Nepal516.
The target in the next assay is HLA-B*15:42. Described as above.
A further assay deals with HLA-A*32:07. The assay is described as above. Conditions: source organism: Yersinia pestis Nepal516.
The next assay concerns the target HLA-B*40:13. The description is as above.
The target of another assay is HLA-B*45:06. The description is as above.
In another assay the target is HLA-A*68:23. The description is as above.
The target in a further assay is HLA-B*48:01. The assay is described as above. Conditions: source organism: Yersinia pestis Nepal516.
The target of another assay is HLA-C*14:02. The description is as above. The settings on record: source organism: human gammaherpesvirus 4.
A further assay addresses HLA-B*27:20. Described as above. The settings on record: source organism: human gammaherpesvirus 4.
Where [5] appears, read: source organism: Mycobacterium tuberculosis variant bovis BCG str. Pasteur 1173P2.
The mark [6] stands for this setting: source organism: Shigella dysenteriae Sd197.
The mark [7] stands for this setting: source organism: Francisella tularensis subsp. tularensis FSC198.
[8] abbreviates: source organism: Yersinia pestis Nepal516.
Where [9] appears, read: source organism: human gammaherpesvirus 4.

In general, Kd refers to a measure of binding affinity in units of concentration. Lower therefore signals tighter binding.

AEDLADHHV: the dissociation constant Kd with HLA-B*46:01 (setting [5]), in the assay with HLA-B*15:01 [1] (setting [5]), with HLA-B*51:01 [2] (setting [5]), with HLA-A*24:03 (setting [5]), with HLA-A*02:19 (setting [5]) and with HLA-B*15:17 (setting [5]) was no less than 20 µM in each case. Also, the Kd was 13.1 nM with HLA-A*02:11 (setting [5]); no less than 20 µM with HLA-A*29:02 (setting [5]); no less than 20 µM with HLA-A*23:01 (setting [5]); no less than 20 µM with HLA-B*27:03 (setting [5]); no less than 20 µM in the assay with HLA-B*18:01 (setting [5]); no less than 20 µM with HLA-A*02:01 (setting [5]). The dissociation constant Kd in the assay with HLA-A*02:12 (setting [5]), in the assay with HLA-B*39:01 (setting [5]), with HLA-A*02:03 (setting [5]), with HLA-A*03:01 (setting [5]), in the assay with HLA-A*26:01 (setting [5]) and with HLA-B*57:01 (setting [5]) was no less than 20 µM throughout.

In the case of FADSDNIAM, the dissociation constant Kd is no less than 20 µM with HLA-B*07:02; no less than 20 µM with HLA-B*15:01 [3]; no less than 20 µM in the assay with HLA-B*51:01 [4]; no less than 20 µM in the assay with HLA-C*04:01; no more than 1 nM in the assay with HLA-C*05:01 (source organism: Rickettsia sibirica 246).

As for IEDDEIIWV, the Kd with HLA-A*02:16, with HLA-B*46:01 (setting [6]), in the assay with HLA-B*15:01 [1] (setting [6]), in the assay with HLA-B*51:01 [2] (setting [6]), in the assay with HLA-A*24:03 (setting [6]) and in the assay with HLA-A*02:19 (setting [6]) was no less than 20 µM in each case. Moreover, the Kd with HLA-B*15:17 (setting [6]) is no less than 20 µM; with HLA-A*02:11 (setting [6]), 0.2 nM; in the assay with HLA-A*29:02 (setting [6]), no less than 20 µM; in the assay with HLA-A*23:01 (setting [6]), no less than 20 µM; in the assay with HLA-B*27:03 (setting [6]), no less than 20 µM; with HLA-B*18:01 (setting [6]), no less than 20 µM. Moreover, the Kd with HLA-A*02:01 (setting [6]), in the assay with HLA-A*02:12 (setting [6]), with HLA-B*39:01 (setting [6]), in the assay with HLA-A*02:03 (setting [6]), with HLA-A*03:01 (setting [6]) and in the assay with HLA-A*26:01 (setting [6]) was no less than 20 µM each time. In the assay with HLA-B*57:01 (setting [6]), this sequence returned a Kd of no less than 20 µM.

Sequence ILKEYPQVY had a Kd in the assay with HLA-B*15:02 (source organism: Encephalitozoon cuniculi GB-M1) of 155 nM.

Regarding MIYNSFNPY, the Kd is no less than 20000 nM with HLA-B*15:02 (setting [7]) and no less than 20 µM in the assay with HLA-C*12:03 (setting [7]).

Turning to MLYPLLWMF, the Kd with HLA-C*06:02 (setting [8]) is 3570 nM; with HLA-B*83:01 (setting [8]) it was no less than 5000 nM; with HLA-A*32:15 (setting [8]), 155 nM; in the assay with HLA-B*58:01, 2060 nM; in the assay with HLA-B*15:01 [1] (setting [8]), 0.406 µM; with HLA-A*24:02 it was 37.7 nM. Besides, the Kd with HLA-B*15:42 (setting [8]) was no less than 5 µM; with HLA-A*32:07, 599 nM; in the assay with HLA-B*40:13 (setting [8]) it was 3500 nM; in the assay with HLA-B*45:06 (setting [8]), no less than 5 µM; with HLA-A*02:01 (setting [8]) it was 0.169 µM; with HLA-A*68:23 (setting [8]) it was 968 nM.

Turning to RMAMIPRTL, in the assay with HLA-B*48:01, the Kd was found to be 87.3 nM.

As to YAMAIRQAI, the Kd with HLA-C*06:02 (setting [9]) is 100 nM; with HLA-B*83:01 (setting [9]) it was 1020 nM; in the assay with HLA-A*32:15 (setting [9]), 92 nM; with HLA-C*14:02, 42.6 nM; in the assay with HLA-B*15:42 (setting [9]), no less than 5 µM; with HLA-B*27:20 it was 29.9 nM. Moreover, the Kd in the assay with HLA-B*40:13 (setting [9]) was 23.9 nM; with HLA-B*45:06 (setting [9]), no less than 5 µM; with HLA-A*68:23 (setting [9]), 190 nM; in the assay with HLA-C*12:03 (setting [9]), no more than 0.001 µM; with HLA-C*05:01 (setting [9]), 2230 nM.
